The target in series [1] is Cascade (Cas7-tagged prep) (Escherichia coli) (UniProt Q46901+P76632+Q46899+Q46898+Q46897). Description: EMSA. For orientation: Mobility shift assays separate free from complexed probe on a gel.
Series [2] deals with T1, Cse1 (tail subunit of E. coli Cascade) (Escherichia coli K12, UniProt Q46901 1-502).
T1 sequence: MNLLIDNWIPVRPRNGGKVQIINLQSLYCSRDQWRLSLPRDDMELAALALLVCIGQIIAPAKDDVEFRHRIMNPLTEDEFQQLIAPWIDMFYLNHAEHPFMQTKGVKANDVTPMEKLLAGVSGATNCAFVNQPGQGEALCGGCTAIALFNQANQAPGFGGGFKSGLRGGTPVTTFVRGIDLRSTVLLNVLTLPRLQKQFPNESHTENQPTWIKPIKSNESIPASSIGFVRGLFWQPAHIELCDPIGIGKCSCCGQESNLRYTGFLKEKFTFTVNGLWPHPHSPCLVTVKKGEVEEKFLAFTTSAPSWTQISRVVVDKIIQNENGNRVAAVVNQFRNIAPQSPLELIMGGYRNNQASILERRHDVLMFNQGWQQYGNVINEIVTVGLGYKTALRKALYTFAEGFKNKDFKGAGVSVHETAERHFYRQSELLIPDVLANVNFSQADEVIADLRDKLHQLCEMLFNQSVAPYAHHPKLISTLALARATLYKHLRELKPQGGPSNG
Description: crystal structure.

Series [3] concerns the target T2, Cascade (Cse2-tagged prep) (Escherichia coli, UniProt Q46901;P76632;Q46899;Q46898;Q46897 1-502;1-160;1-363;1-224;1-199).
T2 sequence 1: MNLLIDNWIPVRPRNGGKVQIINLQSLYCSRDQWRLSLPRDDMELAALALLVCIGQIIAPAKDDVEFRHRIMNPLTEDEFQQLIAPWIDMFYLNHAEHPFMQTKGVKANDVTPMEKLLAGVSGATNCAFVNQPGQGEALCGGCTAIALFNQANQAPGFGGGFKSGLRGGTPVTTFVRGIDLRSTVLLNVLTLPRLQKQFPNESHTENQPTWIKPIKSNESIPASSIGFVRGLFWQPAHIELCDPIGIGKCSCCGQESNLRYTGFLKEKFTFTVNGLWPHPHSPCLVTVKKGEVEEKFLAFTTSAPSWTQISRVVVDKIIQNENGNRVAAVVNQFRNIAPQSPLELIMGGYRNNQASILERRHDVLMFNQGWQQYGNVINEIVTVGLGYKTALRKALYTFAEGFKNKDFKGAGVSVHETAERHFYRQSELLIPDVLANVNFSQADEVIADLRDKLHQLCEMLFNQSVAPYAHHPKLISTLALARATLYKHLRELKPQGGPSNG
T2 sequence 2: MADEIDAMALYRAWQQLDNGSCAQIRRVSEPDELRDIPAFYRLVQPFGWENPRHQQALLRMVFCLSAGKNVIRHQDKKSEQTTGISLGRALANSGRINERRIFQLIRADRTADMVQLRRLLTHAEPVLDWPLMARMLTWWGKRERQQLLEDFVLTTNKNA
T2 sequence 3: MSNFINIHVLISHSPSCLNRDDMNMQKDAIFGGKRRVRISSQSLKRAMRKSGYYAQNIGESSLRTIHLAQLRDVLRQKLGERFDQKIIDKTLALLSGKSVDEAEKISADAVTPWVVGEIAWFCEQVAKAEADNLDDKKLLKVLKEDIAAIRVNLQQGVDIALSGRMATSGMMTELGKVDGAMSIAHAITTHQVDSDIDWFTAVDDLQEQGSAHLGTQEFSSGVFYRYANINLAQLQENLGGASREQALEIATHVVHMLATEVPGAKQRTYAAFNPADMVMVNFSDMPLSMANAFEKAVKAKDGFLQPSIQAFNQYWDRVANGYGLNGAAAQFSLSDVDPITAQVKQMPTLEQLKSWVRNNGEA
T2 sequence 4: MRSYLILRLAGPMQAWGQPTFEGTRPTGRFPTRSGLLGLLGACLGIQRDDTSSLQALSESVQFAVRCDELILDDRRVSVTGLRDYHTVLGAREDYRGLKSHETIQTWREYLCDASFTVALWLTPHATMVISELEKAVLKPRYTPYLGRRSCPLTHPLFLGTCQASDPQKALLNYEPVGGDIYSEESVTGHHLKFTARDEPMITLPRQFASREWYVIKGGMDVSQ
T2 sequence 5: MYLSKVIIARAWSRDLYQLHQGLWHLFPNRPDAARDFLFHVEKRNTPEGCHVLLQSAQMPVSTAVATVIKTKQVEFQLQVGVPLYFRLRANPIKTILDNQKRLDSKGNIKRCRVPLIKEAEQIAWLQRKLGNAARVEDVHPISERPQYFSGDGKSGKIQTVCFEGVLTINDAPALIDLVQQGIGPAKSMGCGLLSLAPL
Description: EMSA.

The series “crystal structure” concerns the molecule itself. Description: crystal structure.

As a reminder, the Kd is the equilibrium constant for the complex coming apart. Low values mean tighter binding, high ones weaker binding. Regarding “GCGCGGCAAGCCGAAAGCATGACGGTATTGTTCAGATCCTGGCTTGCCAACAGTGATTGCTCGGGAGTCGCT (double strand) [72 bp dsDNA target (+21), CAT PAM]”, the dissociation constant (Kd) in series [1] was 13.3 nM.

B1: Cas5e (subunit of E. coli Cascade) (natural protein)
chain: MRSYLILRLAGPMQAWGQPTFEGTRPTGRFPTRSGLLGLLGACLGIQRDDTSSLQALSESVQFAVRCDELILDDRRVSVTGLRDYHTVLGAREDYRGLKSHETIQTWREYLCDASFTVALWLTPHATMVISELEKAVLKPRYTPYLGRRSCPLTHPLFLGTCQASDPQKALLNYEPVGGDIYSEESVTGHHLKFTARDEPMITLPRQFASREWYVIKGGMDVSQ
As for B1, the binding result in series [2] is listed as “binds”.

B2: 72 bp dsDNA target (+21), CAT PAM (dsDNA)
DNA 1: GCGCGGCAAGCCGAAAGCATGACGGTATTGTTCAGATCCTGGCTTGCCAACAGTGATTGCTCGGGAGTCGCT
DNA 2: AGCGACTCCCGAGCAATCACTGTTGGCAAGCCAGGATCTGAACAATACCGTCATGCTTTCGGCTTGCCGCGC
B2 returned a Kd in series [3] of 1.14 nM.

B3: Cas7 as in the crystallised Cascade (natural protein)
chain: MSNFINIHVLISHSPSCLNRDDMNMQKDAIFGGKRRVRISSQSLKRAMRKSGYYAQNIGESSLRTIHLAQLRDVLRQKLGERFDQKIIDKTLALLSGKSVDEAEKISADAVTPWVVGEIAWFCEQVAKAEADNLDDKKLLKVLKEDIAAIRVNLQQGVDIALSGRMATSGMMTELGKVDGAMSIAHAITTHQVDSDIDWFTAVDDLQEQGSAHLGTQEFSSGVFYRYANINLAQLQENLGGASREQALEIATHVVHMLATEVPGAKQRTYAAFNPADMVMVNFSDMPLSMANAFEKAVKAKDGFLQPSIQAFNQYWDRVANGYGLNGAAAQFSLSDVDPITAQVKQMPTLEQLKSWVRNNGEA
A word on the stoichiometry N: it is the number of molecules, sites or subunits per partner or assembly. In the case of B3, the “stoichiometry N” value in “crystal structure” was found to be 6.
